Assay results: patent US12156889B2, “Methods of administering mesenchymal stem cells activated by cytokines for enhancing immunosuppression” (Rutgers, The State University of New Jersey, priority 2012, dated 2024)

Key:
MSCs [1] = assay: Messenger RNA decay assay in MSCs after actinomycin D; format: cell-based, mouse
Description: FIGS. 8A and 8B. IL-17A prevented the decay of iNOS mRNA, (FIG. 8A) the iNOS mRNA stability was measured at different time points after actinomycin D treatment in IFNγ+TNFα and IFNγ+TNFα+IL-17A treatment groups. (FIG. 8B) iNOS expression enhancing effect of IL-17A at different times after IFNγ and TNFα treatment.
FIGS. 13A and 13B. Wild-type (FIG. 13A) or […] (FIG. 13B) were treated with IFNγ and TNFα, with or without IL-17A (all cytokines supplemented at 10 ng/ml), for 6 hr, and then actinomycin D (5 μg/ml) was added to stop transcription. At the indicated time points, mRNA levels were assayed by quantitative RT-PCR, taking the expression level at the time of actinomycin.D addition as 100%. mRNA expression values are means±SD of three wells from a representative of three independent experiments.
Messenger RNA decay assays-Messenger RNA decay assays were performed essentially. MSCs were incubated with cytokine combinations for 6 hr. Actinomycin D (Act.D) was added into the medium at a final concentration of 5 μg/ml to stop transcription. At various time points after addition of Act.D, cells were harvested for extraction of total RNA.
Levels of iNOS, CXCL1, CCL2, CXCL10 and IL-6 mRNAs were measured at each time point by quantitative RT-PCR and normalized to levels of β-actin mRNA. Percentages of mRNA remaining for each time point were plotted versus time after Act.D addition. First order decay constants, k, were determined by nonlinear regression. The associated mRNA half-lives, t1/2, were calculated with the equation t1/2=ln2/k.

MSCs [2] = assay: Gene expression in cytokine-treated MSCs (quantitative RT-PCR, Western Blot); format: cell-based, mouse
Description: FIG. 6. IL-17A greatly enhances inflammatory cytokine-induced iNOS expression in mouse BM-MSCs at both mRNA and protein levels. BM-MSCs were treated with the indicated cytokines. The iNOS gene expression was measured by real-time PCR.
FIGS. 10A, 10B, 10C, 10D and 10E. (FIGS. 10A and 10C). MSCs were cultured with different combinations of inflammatory cytokines IFNγ, TNFα, IL-17A (10 ng/ml) for 12 hr, and then cells were harvested for RNA extraction. The mRNA expression levels of inflammatory molecules iNOS, IL-6, CXCL1 (FIG. 10A) and chemokines CCL2, CCL5, CXCL9, CXCL10 (FIG. 10C) were detected by quantitative RT-PCR. (FIG. 10B). MSCs were cultured with different combinations of inflammatory cytokines IFNγ, TNFα, IL-17A (10 ng/ml) for 24 hr, and the protein level of iNOS was detected by Western Blot. (FIG. 10D). MSCs were supplemented with Sup-CD3 or Sup-CD3 pretreated with antibodies against IL-17A, and cells were collected for RNA extraction after 12 hr. The expression of iNOS, IL-6, CXCL1, CCL2, CCL5, CXCL9 and CXCL10 were measured by quantitative RT-PCR. Sup-CD3: supernatant from splenocytes activated by anti-CD3 and anti-CD28. (FIG. 10E). MSCs were treated with Sup-CD3 or Sup-CD3 pretreated with antibodies against IL-17A, and the protein level of iNOS was assessed by Western Blot after 24 hr. mRNA expression values are means±SEM of three wells from a representative of three independent experiments. Western Blot data is from a representative of three independent experiments.
FIGS. 11A, 11B, 11C and 11D. (FIG. 11A) MSCs with Act1 knockdown or control were treated with IL-17A for different time and the phosphorylation levels of IκBα, ERK, p65, JNK were assessed by Western Blot. (FIG. 11B) MSCs with Act1 knockdown or control were treated with IFNγ and TNFα with or without IL-17A (all cytokines supplemented at 5 ng/ml) the protein levels of iNOS and Act1 were assessed by Western Blot. (FIG. 11C) MSCs (Act1 knockdown or control) were treated with different cytokines 12 hr, and iNOS expression was measured by quantitative RT-PCR. mRNA expression values are means±SEM. (FIG. 11D) MSCs (Act1 knockdown or control) were first treated with IFNγ and TNFα with or without IL-17A (all cytokines supplemented at 5 ng/ml) for 12 hr, and then cocultured with T cell hybridoma A1.1 cells at a ratio of 1:10 for 12 hr. T cell proliferation was measured by 3H-Tdr incorporation, taking the proliferation level of A1.1 alone as 100%.
FIGS. 12A and 12B. (FIG. 12A). WT MSCs or auf1^−/− MSCs were treated with IFNγ and TNFα, or together with IL-17A (all cytokines supplemented at 10 ng/ml) for 12 hr, and iNOS, IL-6 and CXCL1 expression was measured by quantitative RT-PCR. mRNA expression values are means±SEM of three wells from a representative of three independent experiments. (FIG. 12B). WT MSCs were treated with IFNγ and TNFα (10 ng/ml), or together with different concentrations of IL-17A; auf1^−/−-MSCs were treated with IFNγ and TNFα (10 ng/ml), or together with 10 ng/ml of IL-17A. After 24 hr, cells were harvested for detection of iNOS by Western Blot. Western blot is a representative of three independent experiments.
RNA isolation and gene expression assay-Total RNA was isolated with the RNAprep Pure Cell/Bacteria Kit. First-strand cDNA synthesis was performed with a cDNA synthesis kit. The levels of mRNAs were measured by quantitative RT-PCR (7900 HT; Applied Biosystems, Foster City, CA) with SYBR Green Master Mix and normalized to the level of β-actin mRNA. Sequences of forward and reverse primer pairs are as follows:
Western blotting analysis-Cells were washed twice with ice-cold PBS, harvested and lysed in the RIPA buffer (Millipore, Temecular, CA) containing a cocktail of protease inhibitors (Roche, Natley, NJ) and PMSF (Sigma) for 30 min on ice. Lysates were clarified by centrifugation at 16,000 g for 15 minutes. Protein concentration of the supernatant was determined by the Bradford assay (Bio-Rad, Hercules, CA). […]

[3] = together with IFNγ and TNFα, 10 ng/ml, 12 hr

B1: IL-17A: recombinant mouse interleukin 17A (protein)
chain: AAIIPQSSACPNTEAKDFLQNVKVNLKVFNSLGAKVSSRRPSDYLNRSTSPWTLHRNEDPDRYPSVIWEAQCRHQRCVNAEGKLDHHMNSVLIQQEILVLKREPESCPFTFRVEKMLVGVGCTCVASIVRQAA
half-lives of iNOS and IL-6 mRNAs in AUF1 knockout MSCs (MSCs [1]; added to IFNγ+TNFα): no effect | stabilization of CXCL1 mRNA in AUF1 knockout MSCs (MSCs [1]; added to IFNγ+TNFα): at least twofold | stabilization of iNOS, IL-6, and CXCL1 mRNAs in wild-type MSCs (MSCs [1]; added to IFNγ+TNFα): twofold stabilization | iNOS mRNA stability (MSCs [1]; supplement to IFNγ+TNFα, within the time points tested): completely protected | IFNγ+TNFα induced iNOS expression in Act1 knockdown MSCs (MSCs [2]; 5 ng/ml): could not upregulate | expression of CCL5, CCL2, CXCL9, CXCL10 (MSCs [2]; addition to IFNγ and TNFα, 10 ng/ml, 12 hr): unaffected | expression of iNOS at mRNA and protein levels in BM-MSCs (MSCs [2]; in the presence of IFNγ and TNFα): greatly enhanced | iNOS, IL-6, and CXCL1 mRNAs in wild-type MSCs (MSCs [2]; [3]): significant increases | increase of iNOS, IL-6, and CXCL1 mRNA abundance in auf1−/− MSCs (MSCs [2]; [3]): less than twofold | IL-17A induction of iNOS expression in MSCs with AUF1 knocked down with siRNA (MSCs [2]; with IFNγ+TNFα): largely abrogated | iNOS expression in wild type MSCs (MSCs [2]; with IFNγ+TNFα): strikingly induced
